Results as given in patent US20230365703A1.

Tests used:
[1] = molecular target: GPC3 on liver cancer cells (HepG2, HuH-7) (UniProt P51654); test: flow cytometry on HepG2 cells, Alexa Fluor 488 anti-human IgG; fit value of the flat control curve; unit inferred, unit taken from the axis Con.(nM)
[2] = molecular target: CD47 on CD47-transfected CHO-K1 cells (Homo sapiens (Human)) (UniProt Q08722); test: flow cytometry on CD47-transfected CHO-K1 cells (CD38-/CD47+), anti-human IgG-FITC detection
[3] = molecular target: human CD47-Fc chimeric protein (human) (UniProt Q08722); test: SPR (Biacore T200), human CD47-Fc captured on anti-human IgG (Fc) CM5 chip, analyte 50 nM, bivalent analyte model
[4] = molecular target: IL12 receptors on H_IL12 Reporter 293 cells (UniProt P42701); test: cell-based or functional assay
IL12 receptors on H_IL12 Reporter 293 cells, sequence (Q99665 24-862 limits assumed, chain 2 of 2, other chains not shown): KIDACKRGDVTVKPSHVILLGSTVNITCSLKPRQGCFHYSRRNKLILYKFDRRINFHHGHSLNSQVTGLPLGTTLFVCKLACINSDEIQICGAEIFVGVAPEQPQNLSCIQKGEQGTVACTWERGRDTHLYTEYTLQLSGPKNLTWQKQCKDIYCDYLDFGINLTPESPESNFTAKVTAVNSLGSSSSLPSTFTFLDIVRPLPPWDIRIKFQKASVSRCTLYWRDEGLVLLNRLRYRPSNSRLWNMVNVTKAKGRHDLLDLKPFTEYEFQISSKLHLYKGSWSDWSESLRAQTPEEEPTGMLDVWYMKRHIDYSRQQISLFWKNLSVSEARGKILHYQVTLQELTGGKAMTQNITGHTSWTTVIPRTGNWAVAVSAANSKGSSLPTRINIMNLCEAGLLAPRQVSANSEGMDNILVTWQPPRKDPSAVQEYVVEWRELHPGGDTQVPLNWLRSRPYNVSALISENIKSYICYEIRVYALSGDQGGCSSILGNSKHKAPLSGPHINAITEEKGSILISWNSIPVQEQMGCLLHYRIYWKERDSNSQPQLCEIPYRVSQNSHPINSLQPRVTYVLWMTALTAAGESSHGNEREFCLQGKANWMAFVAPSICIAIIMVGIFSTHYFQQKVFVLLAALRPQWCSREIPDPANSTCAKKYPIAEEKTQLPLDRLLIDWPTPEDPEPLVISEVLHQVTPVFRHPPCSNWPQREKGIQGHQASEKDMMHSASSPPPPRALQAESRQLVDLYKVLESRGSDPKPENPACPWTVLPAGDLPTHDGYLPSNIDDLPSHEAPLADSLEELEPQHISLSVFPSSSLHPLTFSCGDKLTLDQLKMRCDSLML

An EC50 [1] of 3.4 nM was found for “Human IgG1 homotype control (Isotype) (antibody)” in this work.
An EC50 (read off the curve) [2] of 0.8 nM and a Kd [3] of 37.3 nM were found for TTI-621 (Fc fusion) in this work.
An EC50 on H IL12 Reporter 293 cells (One-Glo signal; called binding affinity by the filing) [4] of 0.06 nM was found for “IL12A and IL12B complex (from UniProt P29459 23-219; P29460 24-328) (ligand)” in this work.
